One series addresses T1, PcUP1 (Phytophthora capsici, UniProt A0A410UCT3).
T1 construct: gene up; homodimer, active site at the dimer interface (His19 and Arg59 from the neighbouring monomer)
T1 sequence (A0A410UCT3 1-296): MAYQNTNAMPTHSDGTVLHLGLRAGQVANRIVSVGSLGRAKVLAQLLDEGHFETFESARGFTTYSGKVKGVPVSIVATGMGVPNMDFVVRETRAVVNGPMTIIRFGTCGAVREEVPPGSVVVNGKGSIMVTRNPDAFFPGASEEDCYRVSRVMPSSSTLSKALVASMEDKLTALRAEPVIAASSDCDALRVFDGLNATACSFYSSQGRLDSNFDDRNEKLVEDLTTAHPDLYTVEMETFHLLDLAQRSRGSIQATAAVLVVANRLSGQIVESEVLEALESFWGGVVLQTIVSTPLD
The experiment in a line: X-ray crystal structure, […] Å. The series is classed as binding. The conditions noted are these: with 2'-deoxyuridine (also with thymidine, 6K8P); phosphate site; crystals grown in phosphate.

Substrate in series [1]: O=c1ccn([C@@H]2O[C@H](CO)[C@@H](O)[C@H]2O)c(=O)[nH]1
Briefly: HPLC of uracil formed, Michaelis-Menten fit. The format is biochemical, Phytophthora capsici. The conditions noted are these: phosphorolysis, uridine 0.25-5 mM, 10 mM Na2HPO4, pH 7.5, 25 °C, kcat assumes Et = 2.

For `O=P(O)(O)O` [phosphate], at PcUP1, the “X-ray crystal structure, 2.1 Å” value is listed as “Arg59 is an important residue in the phosphate-bonding pocket, forming two hydrogen bonds”.

B1: PcUP1 (Phytophthora capsici) (protein)
chain: T1 sequence (A0A410UCT3 1-296)
notes: homodimer, active site at the dimer interface (His19 and Arg59 from the neighbouring monomer)
As for B1, in series [1], the Michaelis constant (Km) (as a rule, the concentration of substrate that gives half-maximal velocity) was found to be 6.96 ± 1.52 mM; the catalytic constant (kcat) (as a rule, the number of substrate molecules converted per active site and unit of time at saturation) is 982 ± 152 s⁻¹.

B2: PcUP2 (Phytophthora capsici) (protein)
chain: MAPNMDAVADATAQVHVRNSHILEMHSDVLFHIGLTCSQEERQQVANTFGDVKFFITGGSAERMTHFAQSVAKELGITTPYGYQLAPIGSTSRYTLFKVGPVLVANHGIGMPSISILLHEVTKLLEYAGAHGATYIRMGTSGGIGVEPGTVVITSEGVNNKLESVDEVAVLGSTVRRPSICSPEVREEIITAAKEVGLPYAVGKTLSCNDFYEGQGRLDGAICEYTLEDKMAFLQKLADAGVRNIEMEARLMAGFCHKLNIPVAVVCVTLLNRLNGDQVLSSHETLQDFERRPGAVLLHYIKSKVNASA
On to B2, for which, in series [1], the Km amounted to 7.55 ± 0.6 mM and the kcat was found to be 1188 ± 90 s⁻¹.

Values taken from paper PMC7271239, “Structural and catalytic analysis of two diverse uridine phosphorylases in Phytophthora capsici” (Scientific Reports, 2020).
